Experiments:
alpha-thrombin [1] = molecular target: T1, alpha-thrombin (Homo sapiens, UniProt P00734;P00734 P00734:328-363,P00734:364-622); assay: membrane-type surface stress sensor; voltage difference vs poly T control; 240 nM thrombin in PBS
alpha-thrombin [2] = molecular target: T1, alpha-thrombin; assay: negative control on membrane-type surface stress sensor, used as reference for voltage difference; 240 nM thrombin in PBS

B1: thrombin aptamer (15-mer with T5 tail) (ssDNA)
DNA: GGTTGGTGTGGTTGGTTTTT
Question: Does B1 bind (alpha-thrombin [1])?
Answer: Result: binds

B2: poly T control (ssDNA)
DNA: TTTTTTTTTTTTTTTTTTTT
Question: Does B2 bind (alpha-thrombin [2])?
Answer: Result: no binding

From US20230093239 (published 2023)
